Data: patent publication US20080194522A1, “Development of Fluorogenic Substrates For Monoamine Oxidases (Mao-A and Mao-B)” (priority 2004, published 2008)
Where two headings read alike, the source gives them in different places.

B1: MAO-A (Homo sapiens) (protein)
chain: MENQEKASIAGHMFDVVVIGGGISGLSAAKLLTEYGVSVLVLEARDRVGGRTYTIRNEHVDYVDVGGAYVGPTQNRILRLSKELGIETYKVNVSERLVQYVKGKTYPFRGAFPPVWNPIAYLDYNNLWRTIDNMGKEIPTDAPWEAQHADKWDKMTMKELIDKICWTKTARRFAYLFVNINVTSEPHEVSALWFLWYVKQCGGTTRIFSVTNGGQERKFVGGSGQVSERIMDLLGDQVKLNHPVTHVDQSSDNIIIETLNHEHYECKYVINAIPPTLTAKIHFRPELPAERNQLIQRLPMGAVIKCMMYYKEAFWKKKDYCGCMIIEDEDAPISITLDDTKPDGSLPAIMGFILARKADRLAKLHKEIRKKKICELYAKVLGSQEALHPVHYEEKNWCEEQYSGGCYTAYFPPGIMTQYGRVIRQPVGRIFFAGTETATKWSGYMEGAVEAGERAAREVLNGLGKVTEKDIWVQEPESKDVPAVEITHTFWERNLPSVSGLLKIIGFSTSVTALGFVLYKYKLLPRS
B2: MAO-B (Bos taurus) (protein)
chain: MSSKCDVVVVGGGISGMAAAKLLHDSGLNVIVLEARDRVGGRTYTLRNQKVKYVDLGGSYVGPTQNHILRLSKELGLETYKVNEVERLIHHTKGKSYPFRGSFPSVWNPITYLDHNNLWRTMDDMGREIPSDAPWKAPLAEQWDLMTMKELLDKICWTESSKQLAILFVNLCVTAEIHEVSALWFLWYVKQCGGTTRIFSTSNGGQERKFVGGSGQVSERIMDLLGDRVKLERPVIHIDQTGENVLVETLNHELYEAKYVISAVPPVLGMKIHFNPPLPMMRNQLITRVPLGSVIKSIVYYKEPFWRNMDYCGSMIIEGEEAPVAYALDDTKPDGSYPAIIGFILAHKARKLARLTKEERLKKLCDLYAKVLGSQEALHPVHYEEKNWCEEQYSGGCYTSYFPPGIMTQYGRVLRQPVGRIYFAGTETATHWSGYMEGAVEAGERAAREILHAMGKIPEDEIWLPEPESVDVPAKPITTTFLQRHLPSVPGLLKLIGLTTIFSATALGFLAHKRGLLVRI

Substrate: NCCc1cc2oc(=O)ccc2cc1N
Test: purified protein, by the assay type

Protein | Km | Km (pH 7.4)
B1 | 30.9 ± 1.8 µM | 31 µM
B2 | 510 ± 40 µM | 13 µM
